# Laboratory results taken from patent publication US20170260274A1.
# B1: Ranpirnase-DEN-scFv (protein)
# chain: QDWLTFQKKHITNTRDVDCDNIMSTNLFHCKDKNTFIYSRPEPVKAICKGIIASKNVLTTSEFYLSDCNVTSRPCKYKLKKSTNKFCVTCENQAPVHFVGVGSCMVDRGWGNGCGLFGKGGIVEVQLVESGGGLVQPGGSLRLSCAASGFSLTNYGVHWVRQAPGKGLEWLGVIWSGGNTDYNTPFTSRFTISRDNSKNTLYLQMNSLRAEDTAVYYCARALTYYDYEFAYWGQGTTVTVSSGGGGSGGGGSGGGGSDIQLTQSPSFLSASVGDRVTITCRASQSIGTNIHWYQQKPGKAPKLLIKYASESISGVPSRFSGSGSGTEFTLTISSLQPEDFATYYCQQNNNWPTTFGAGTKLEIKR
# modifications: not checked
# Legend:
# [1] = biological target: epidermal growth factor receptor (EGFR) (human), P00533; experiment: flow cytometry, equilibrium binding on EGFR-expressing A431 cells (apparent KD)
# [2] = biological target: epidermal growth factor receptor (EGFR) (human), P00533; experiment: cell-based or functional assay
binder,measurement,setting,value
B1,Kd,[1],0.0112 µM
same,"IC50 (nM), cell viability, A431",[2],38 nM
same,"IC50 (nM), cell viability, HNO97",[2],411 nM
same,"IC50 (nM), cell viability, HNO211",[2],18 nM
same,"IC50 (nM), cell viability, HNO410",[2],308 nM
same,"fold increase in potency compared to Ranpirnase-GS-scFv, HNO211 cells",[2],79 fold
